tested on: Escherichia coli TOP10; experiment: shrunken log2 fold change of peptide-encoding DNA abundance (4.5 h post-induction vs induction); higher = less antimicrobial activity (less host growth inhibition); conditions: time post-induction: 4.5 h; library: site-saturation at positions 5, 18, 19, 20
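Note: peptides expressed intracellularly from a pBAD plasmid library in pooled LB shake-flask culture, induced with 0.3% L-arabinose, DNA abundance read by NGS, three biological replicates, DESeq2 with apeglm shrinkage.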

Row | Sequence | shrunken log2 fold change
1 | RRIRVRPPRLPRPRPRPVRWPRP | 0.805
2 | RRIRIRPPRLPRPRPRPMDNPRP | -0.096
3 | RRIRVRPPRLPRPRPRPNERPRP | 0.0435
4 | RRIRDRPPRLPRPRPRPCKEPRP | 0.00884
5 | RRIRCRPPRLPRPRPRPKNWPRP | 0.331
6 | RRIRTRPPRLPRPRPRPFVNPRP | -0.223
7 | RRIRGRPPRLPRPRPRPNCWPRP | 0.303
8 | RRIRTRPPRLPRPRPRPTKVPRP | -0.134
9 | RRIRWRPPRLPRPRPRPFGQPRP | -0.0338
10 | RRIRNRPPRLPRPRPRPSMVPRP | -0.508
11 | RRIRARPPRLPRPRPRPQRKPRP | 0.365
12 | RRIRSRPPRLPRPRPRPNCRPRP | -0.0318
13 | RRIRRRPPRLPRPRPRPEGKPRP | 0.0207
14 | RRIRIRPPRLPRPRPRPYTRPRP | -0.353
15 | RRIRLRPPRLPRPRPRPPQYPRP | -0.0075
16 | RRIRTRPPRLPRPRPRPVFVPRP | 0.0253
17 | RRIRDRPPRLPRPRPRPNIYPRP | -0.3
18 | RRIRFRPPRLPRPRPRPPMAPRP | 0.277
19 | RRIRCRPPRLPRPRPRPFCMPRP | 0.174
20 | RRIRHRPPRLPRPRPRPKFGPRP | 0.0962
21 | RRIRFRPPRLPRPRPRPSMNPRP | 0.274
22 | RRIRQRPPRLPRPRPRPYVKPRP | -0.365
23 | RRIRRRPPRLPRPRPRPVAAPRP | 1.42
24 | RRIRIRPPRLPRPRPRPYPYPRP | 0.0143
25 | RRIRWRPPRLPRPRPRPACNPRP | -0.144

Row | Sequence | shrunken log2 fold change
26 | RRIRSRPPRLPRPRPRPFKCPRP | -0.226
27 | RRIRYRPPRLPRPRPRPAKDPRP | -0.151
28 | RRIRSRPPRLPRPRPRPLASPRP | 0.0667
29 | RRIRYRPPRLPRPRPRPEHIPRP | -0.0114
30 | RRIRMRPPRLPRPRPRPMPCPRP | -0.00548
31 | RRIRKRPPRLPRPRPRPTRGPRP | 0.857
32 | RRIRWRPPRLPRPRPRPGQGPRP | 0.522
33 | RRIRERPPRLPRPRPRPHGGPRP | -0.0234
34 | RRIRLRPPRLPRPRPRPGQHPRP | -0.0142
35 | RRIRSRPPRLPRPRPRPLILPRP | -0.628
36 | RRIRPRPPRLPRPRPRPFFMPRP | -0.196
37 | RRIRKRPPRLPRPRPRPETDPRP | 0.0366
38 | RRIRTRPPRLPRPRPRPCINPRP | -0.686
39 | RRIRRRPPRLPRPRPRPGMKPRP | -0.133
40 | RRIRTRPPRLPRPRPRPPRAPRP | 0.786
41 | RRIRNRPPRLPRPRPRPGLYPRP | -0.581
42 | RRIRRRPPRLPRPRPRPNGCPRP | 0.00793
43 | RRIRPRPPRLPRPRPRPGMNPRP | -0.0398
44 | RRIRVRPPRLPRPRPRPCEAPRP | 0.0719
45 | RRIRDRPPRLPRPRPRPYNRPRP | -0.361
46 | RRIRYRPPRLPRPRPRPCPAPRP | -0.772
47 | RRIRRRPPRLPRPRPRPCTHPRP | 0.176
48 | RRIRMRPPRLPRPRPRPMNSPRP | 0.0624
49 | RRIRNRPPRLPRPRPRPCYYPRP | -0.387
50 | RRIRKRPPRLPRPRPRPHGGPRP | -0.0161

Row | Sequence | shrunken log2 fold change
51 | RRIRPRPPRLPRPRPRPPMIPRP | -0.425
52 | RRIRYRPPRLPRPRPRPVLNPRP | -0.258
53 | RRIRDRPPRLPRPRPRPFQMPRP | -0.57
54 | RRIRYRPPRLPRPRPRPPGLPRP | 0.148
55 | RRIRWRPPRLPRPRPRPRSYPRP | -0.0435
56 | RRIRYRPPRLPRPRPRPIINPRP | -0.099
57 | RRIRKRPPRLPRPRPRPRDSPRP | 0.262
58 | RRIRKRPPRLPRPRPRPGDAPRP | 0.571
59 | RRIRERPPRLPRPRPRPEKLPRP | -0.296
60 | RRIRGRPPRLPRPRPRPDVFPRP | 0.438
61 | RRIRPRPPRLPRPRPRPRLPPRP | 0.383
62 | RRIRWRPPRLPRPRPRPLAQPRP | 0.469
63 | RRIRKRPPRLPRPRPRPNHMPRP | -0.106
64 | RRIRIRPPRLPRPRPRPDKRPRP | -0.0405
65 | RRIRCRPPRLPRPRPRPIHTPRP | -0.527
66 | RRIRLRPPRLPRPRPRPELQPRP | 0.328
67 | RRIRARPPRLPRPRPRPMDWPRP | 0.341
68 | RRIRVRPPRLPRPRPRPAHLPRP | -0.0953
69 | RRIRPRPPRLPRPRPRPRRKPRP | 0.166
70 | RRIRSRPPRLPRPRPRPGKFPRP | -0.111
71 | RRIRQRPPRLPRPRPRPRVNPRP | -0.0952
72 | RRIRIRPPRLPRPRPRPYMIPRP | -0.307
73 | RRIRERPPRLPRPRPRPKIGPRP | -0.0947
74 | RRIRKRPPRLPRPRPRPKVHPRP | 0.243
75 | RRIRNRPPRLPRPRPRPTNHPRP | -0.527

Row | Sequence | shrunken log2 fold change
76 | RRIRLRPPRLPRPRPRPMPFPRP | -0.0289
77 | RRIRMRPPRLPRPRPRPYFDPRP | -1.09
78 | RRIRLRPPRLPRPRPRPYAFPRP | 0.0808
79 | RRIRIRPPRLPRPRPRPNVKPRP | -0.163
80 | RRIRHRPPRLPRPRPRPWPDPRP | -0.0062
81 | RRIRWRPPRLPRPRPRPVQQPRP | -0.0911
82 | RRIRPRPPRLPRPRPRPDDWPRP | 0.247
83 | RRIRARPPRLPRPRPRPNNDPRP | 0.026
84 | RRIRDRPPRLPRPRPRPPCLPRP | -0.264
85 | RRIRSRPPRLPRPRPRPYWCPRP | -0.161
86 | RRIRNRPPRLPRPRPRPWHMPRP | -0.0135
87 | RRIRTRPPRLPRPRPRPWLCPRP | 0.0607
88 | RRIRERPPRLPRPRPRPNLCPRP | -0.13
89 | RRIRCRPPRLPRPRPRPGYCPRP | -0.0918
90 | RRIRQRPPRLPRPRPRPRTKPRP | 0.0706
91 | RRIRERPPRLPRPRPRPNHCPRP | -0.0763
92 | RRIRLRPPRLPRPRPRPNVQPRP | -0.275
93 | RRIRWRPPRLPRPRPRPHQAPRP | 0.257
94 | RRIRIRPPRLPRPRPRPEPGPRP | 0.253
95 | RRIRLRPPRLPRPRPRPDECPRP | 0.0277
96 | RRIRKRPPRLPRPRPRPWTKPRP | -0.0423
97 | RRIRWRPPRLPRPRPRPDQDPRP | -0.0971
98 | RRIRCRPPRLPRPRPRPEFFPRP | -0.127
99 | RRIRCRPPRLPRPRPRPIADPRP | -0.107
100 | RRIRMRPPRLPRPRPRPHVAPRP | 0.00497

Row | Sequence | shrunken log2 fold change
101 | RRIRSRPPRLPRPRPRPHIYPRP | -0.607
102 | RRIRPRPPRLPRPRPRPAQMPRP | 0.181
103 | RRIRIRPPRLPRPRPRPQFIPRP | -0.782
104 | RRIRDRPPRLPRPRPRPSRPPRP | 0.452
105 | RRIRRRPPRLPRPRPRPTQHPRP | 0.691
106 | RRIRYRPPRLPRPRPRPFWRPRP | 0.0184
107 | RRIRLRPPRLPRPRPRPVLIPRP | -0.303
108 | RRIRNRPPRLPRPRPRPRTAPRP | -0.0352
109 | RRIRRRPPRLPRPRPRPSWMPRP | -0.324
110 | RRIRFRPPRLPRPRPRPLDIPRP | -0.267
111 | RRIRFRPPRLPRPRPRPFQNPRP | -0.041
112 | RRIRPRPPRLPRPRPRPIEKPRP | 0.0388
113 | RRIRMRPPRLPRPRPRPGNQPRP | -0.0232
114 | RRIRDRPPRLPRPRPRPKIIPRP | -0.0166
115 | RRIRNRPPRLPRPRPRPVFYPRP | -0.19
116 | RRIRARPPRLPRPRPRPGFLPRP | 0.426
117 | RRIRMRPPRLPRPRPRPHWHPRP | 0.0139
118 | RRIRERPPRLPRPRPRPQHWPRP | -0.046
119 | RRIRERPPRLPRPRPRPLDWPRP | -0.0749
120 | RRIRLRPPRLPRPRPRPWLGPRP | 0.181
121 | RRIRIRPPRLPRPRPRPVQVPRP | -0.0757
122 | RRIRKRPPRLPRPRPRPKILPRP | 0.362
123 | RRIRMRPPRLPRPRPRPWVYPRP | -0.0124
124 | RRIRRRPPRLPRPRPRPLKHPRP | 0.208
125 | RRIRCRPPRLPRPRPRPEYKPRP | -0.415

Row | Sequence | shrunken log2 fold change
126 | RRIRARPPRLPRPRPRPRQYPRP | -0.294
127 | RRIRTRPPRLPRPRPRPQQNPRP | -0.0459
128 | RRIRHRPPRLPRPRPRPAQGPRP | -0.197
129 | RRIRWRPPRLPRPRPRPCQNPRP | -0.118
130 | RRIRMRPPRLPRPRPRPFLDPRP | -0.198
131 | RRIRHRPPRLPRPRPRPDMHPRP | -0.329
132 | RRIRERPPRLPRPRPRPYDMPRP | -0.222
133 | RRIRMRPPRLPRPRPRPSWAPRP | 0.203
134 | RRIRQRPPRLPRPRPRPSHPPRP | -0.272
135 | RRIRRRPPRLPRPRPRPWEAPRP | 0.155
136 | RRIRYRPPRLPRPRPRPLIKPRP | -0.386
137 | RRIRERPPRLPRPRPRPVIVPRP | -0.373
138 | RRIRYRPPRLPRPRPRPFSKPRP | -0.107
139 | RRIRNRPPRLPRPRPRPRDMPRP | -0.121
140 | RRIRIRPPRLPRPRPRPKSCPRP | -0.0687
141 | RRIRARPPRLPRPRPRPWGDPRP | 0.376
142 | RRIRWRPPRLPRPRPRPCFYPRP | -0.249
143 | RRIRGRPPRLPRPRPRPTPHPRP | 0.906
144 | RRIRQRPPRLPRPRPRPEWIPRP | -0.00133
145 | RRIRARPPRLPRPRPRPATQPRP | 0.437
146 | RRIRKRPPRLPRPRPRPTRKPRP | 3.78
147 | RRIRYRPPRLPRPRPRPWFGPRP | -0.0933
148 | RRIRYRPPRLPRPRPRPFIPPRP | -0.296
149 | RRIRMRPPRLPRPRPRPIENPRP | -0.142
150 | RRIRDRPPRLPRPRPRPYSIPRP | 0.0125

Reference: the supplement of paper PMC9112550, “Optimization of the antimicrobial peptide Bac7 by deep mutational scanning” (BMC Biology, 2022)
